# Legend:
# MCF-7 cells = experiment: In vivo hollow fiber assay; parameters: species or system balb/c nu/nu mice
# Description: Hollow Fiber procedures followed the method of Hollingshead. (Hollingshead et al Life Sci 57 131-41 (1995)).
# Polyvinylidene difluoride (PVDF) hollow fibers (500 kDa cut-off, 1 mm inner diameter; Spectrum Europe B.V., Breda, Netherlands) were flushed through with 70% ethanol using a blunt 21 gauge needle and 10 ml syringe. Fibers were then immersed in 70% ethanol for 72 hours, flushed through again with 70% ethanol, then distilled water, and then autoclaved at 131° C. Finally, before loading cell suspensions, fibers were flushed through with RPMI 1640 culture medium. Cells (MCF-7, T47D, and MDA-MB-231) were introduced into fibers at densities of 2.5 to 3.0×10^6 cells/ml. Fibers were then heat-sealed at 2 cm intervals and placed in Petri dishes containing 3 ml of the cell appropriate medium.
# Cell-loaded hollow fiber segments were incubated at 37° C. in culture medium overnight before implantation into pure strain 5-6 week old female balb/c nu/nu mice. Fibers were implanted into the animals under anaesthesia (2% Isofluorane). Three 2 cm fibers, each containing one of the cell lines MCF-7, T47D, or MDA-MB-231, were implanted at both subcutaneous (s.c.) and intraperitoneal (i.p.) sites into each animal. For i.p. implants, a small incision was made through the skin and musculature of the ventral abdominal wall. Fibers were placed into the peritoneal cavity and both incisions were closed with metallic suture clips (Harvard Instruments, Edenbridge UK). For s.c. implants, a small incision was made dorsally. The fibers were implanted to the left of the dorsal midline in a cranial direction. The small incision was closed with metallic suture clips.
# Mice (n=5/group) with hollow fiber implants were treated with R6313/G2 (0.07 mg/kg (2.5 nmol/kg), and 0.7 mg/kg (25 nmol/kg) in 0.1 ml PBS, subcutaneously) twice per day for six days. Control animals (n=5) received vehicle alone. 24 hours after the last injection, animals were killed by cervical dislocation and the fibers were recovered and transferred to pre-warmed RPMI 1640 medium containing 20% FBS for 30 minutes.
# Cell viability was measured using a modified MTT assay. Fibers were incubated in RPMI 1640 with 20% FBS containing 1 mg/ml MTT, and incubated at 37° C. under […], 5% CO2 for 4 hours. The reagent was aspirated, and 2 ml sterile filtered 2.5% protamine sulphate (0.9 g NaCl, 2.5 g protamine sulphate in 100 ml water) was added. Specimens were stored at 4° C. for a minimum of 24 hours in the dark to fix the formazan product. Fresh protamine sulphate (2.5%) was added and fibers were stored for a further 2 to 4 hours at 4° C. Each fiber was transferred to a well in a 24 well plate, cut in half and air-dried overnight, protected from light. Dimethyl sulphoxide (DMSO) (300 μl) was added to each well and the formazan product extracted. An aliquot (190 μl) from each well was transferred to a 96 well plate and absorbance read at 540 nm using a Multiskan Ascent photometric microplate reader (Thermo labsystem). Treated values were calculated as a percentage of the controls.
# [1] = Rat blood pressure (tail cuff); parameters: species or system Female Wistar rats; details: intact rats in vivo
# Description: Rats were chosen for this part of the study in view of their greater tractability in blood pressure assays. Female Wistar rats were first acclimatised to handling and the blood pressure equipment for 4-5 days before experimentation. Blood pressure in the conscious animals was determined using a Kent Scientific Corporation (Torrington Conn., USA) Coda 6+ tail cuff system in which the animals were held in warmed restrainers while blood pressures were assessed. Animals were first stabilised and their basal blood pressure taken before treatment. They were then briefly removed from the restrainers for sc injection of R6313/G2, 0.4 mg/kg in sterile PBS (0.1 ml). Controls received PBS alone. Blood pressures were then taken at intervals over a period of 1 hour, before restoring to cages. The procedures were repeated daily for 3 days.
# [2] = Body weight, aldosterone and activity of hollow fiber mice; assay type: in vivo, nu/nu mice
# MCF-7 cell xenografts = experiment: In vivo xenograft assay; details: nu/nu mice, 13 nmol/kg
# Description: Mice were injected s.c. on the right-flank, with 150 μl sterile PBS containing 7.5×10^6 MCF-7 cells. Tumour cells were allowed to grow for 4 weeks without hormone support, thereafter mice received weekly s.c. injections of 17β-oestradiol valerate (0.1 mg/Kg body weight), in sesame oil (Kasukabe et al., Breast Cancer Res. 7(6) R1097-110 (2005)) for a further 8 weeks. Animals were monitored daily for general health, and body weights were measured twice-weekly. Tumour size was measured 3 times per week with slide callipers, and volumes were calculated as (L×W^2)/2, where L and W are the major and minor diameters, respectively. Once tumour volumes reached 150 to 200 mm^3, mice were randomized to treatment and control groups of 8 to 10 per group. Mice were treated by subcutaneous injections of R6313/G2 in sterile PBS (0.1 ml) at doses of 0.4 mg/kg (13 nmol/kg), 0.8 mg/kg (27 nmol/Kg), and 1.36 mg/kg (45.3 nmol/kg) body weight, twice per day for seven days. Control mice received sterile PBS. […] Relative body weights (%) were calculated as (Wt/Wi)×100, where Wt is the body weight at any given time and Wi is the body weight at treatment initiation. Net tumour volume was calculated as Vt-Vi, where Vt is the tumour volume at any given time and Vi is the tumour volume at the start of treatment, and expressed as a percentage of Vi.
# [3] = molecular target: T1, antigenic peptide […] (AT1 receptor) (Rattus norvegicus, UniProt P25095); experiment: Antigen ELISA during panning of scFv library; assay type: binding
# T1 construct: 96 well plates coated with the original antigenic peptide ([…]
# Description: The 6313/G2 mouse monoclonal antibody hybridoma was grown as previously described (Barker et at J. Mol. Endocrinol. 11 241-245 (1993)). A pool of cDNA derived from mRNA was used to obtain heavy and light chains by PCR. A linker fragment encoding (Gly4Ser)3 was used to assemble the scFv library of inserts and a phage display library was created by directionally cloning these inserts into the pCANTAB 5 E phagemid vector (Amersham Pharmacia, High Wycombe, UK). An E-tag for the expressed sequence GAPVPYPDPLEPR (SEQ ID NO: 11) was included in this vector and used in subsequent panning and purification steps. The phagemid library was then used to transform TG1 E. coli, and phagemid rescue was carried out using the M13K07 helper phage followed by several rounds of panning Positive expressing clones were identified by ELISA using 96 well plates coated with the original antigenic peptide (EDGIKRIQDD; SEQ ID NO:1) and an anti-E-tag antibody (Amersham Pharmacia) detected using an HRP-linked secondary antibody. One particular clone was taken forward for expression and purification and functional assessment on the basis of giving the highest signal in the antigen ELISA.
molecule,measurement,setting,value
"R6313/G2: murine scFv analogue of the 6313/G2 anti-AT1 receptor monoclonal antibody variable domains, SEQ ID NO:15 (protein, 12D) scFv: YAAQPAMAQVKLQQSGPELEKPGASVKISCKASGYSFTGYNMNWVKQSNGKSLEWIGNIDPYYGGTTYNQKFKGKATLTVDKSSSTAYMQLKSLTSEDSAVYYCAREVDYWGQGTTVTVSSGGGGSGGGGSGGGGSDIELTQSPASLAVSLGQRATISYRASKSVSTSGYSYMHWNQQKPGQPPRLLIYLVSNLESGVPARFSGSGSGTDFTLNIHPVEEEDAATYYCQHIRELTRSEGTKLEIKRAAAGAPVPY",cell survival in hollow fibers in vivo,"MCF-7 cells; MCF7, i.p. site, 0.07 and 0.7 mg/kg (2.5 and 25 nmol/kg) twice per day",inhibited MCF7 cell survival
same,cell survival in hollow fibers in vivo,"MCF-7 cells; MCF-7, s.c. site",dose dependently inhibited cell survival
same,resting blood pressure,[1],does not reduce and may even increase resting blood pressure
same,stress-induced increases in blood pressure,[1],significantly inhibits the stress-induced increases in blood pressure
same,animal activity,[2]; 13 nmol/kg 2× per day,no effect
same,body weight,[2]; 13 nmol/kg 2× per day,no effect
same,circulating aldosterone concentrations,[2]; 13 nmol/kg 2× per day,no effect
same,body weights of the experimental animals,"[2]; hollow fiber mice, during the period of treatment",no changes
same,"cancer cell growth, xenograft tumours",MCF-7 cell xenografts,significantly inhibited cancer cell growth
same,activity of clones (preliminary studies),[3],highest activity
